Laboratory results: publication PMC2947992, “Structure of the Extracellular Portion of CD46 Provides Insights into Its Interactions with Complement Proteins and Pathogens” (PLoS Pathogens, 2010)

B1: human adenovirus type 11 fiber knob (domain or fragment)
chain: LTFNSNNICIDDNINTLWTGVNPTEANCQIMNSSESNDCKLILTLVKTGALVTAFVYVIGVSNNFNMLTTHRNINFTAELFFDSTGNLLTRLSSLKTPLNHKSGQNMATGAITNAKGFMPSTTAYPFNDNSREKENYIYGTCYYTASDRTAFPIDISVMLNRRAINDETSYCIRITWSWNTGDAPEVQTSATTLVTSPFTFYYIREDD
notes: fiber protein of human adenovirus type 11, knob domain, amino acids 118-325; also called Ad11 knob; Ad11 fiber knob

Tests used:
[1] = molecular target: human adenovirus type 11 fiber knob (human adenovirus type 11) (UniProt P35774); assay: crystal structure; complex formed from purified proteins at 4°C for 2 hrs with a 1.2 molar excess of CD46-4D, separated from unbound CD46-4D by size exclusion chromatography (20 mM HEPES, 150 mM NaCl, pH 7.4); crystals at 4°C in 20% polyethylene glycol 1000, 0.2 M ammonium phosphate pH 8.0; space group P6_(3), 2.84 Å
[2] = molecular target: the molecule itself; assay: as above

Row | Molecule | stoichiometry N (CD46-4D molecules per knob trimer) [1] | stoichiometry N [2]
1 | CD46-4D, extracellular segment of human CD46 (membrane cofactor protein) comprising all four SCR domains (domain or fragment) | 3 | 
2 | B1 |  | 3 protomers
